The supplement of paper PMC7125110
± gives the standard error. For some of these results: Variants at the floor of the assay were thinned out.

B1: glmS ribozyme (parent)
chain: AUAAAAGCGCCAGAACUACAGAAAUGUAGUUGACGAGGAGGAGGUUUAUCGAAUUUUCGGCGGAUGCCUCCAAA

Key:
Details in all cases: with glucosamine-6-phosphate
glucosamine-6-phosphate [1] = variants of: B1; assay: kcat; higher = faster cleavage; RNA array
Procedure, shortened: (§1)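 Tracking of barcoded ribozyme variants used a hybridised Cy3 probe at 37 °C, after in situ transcription by E. coli RNA polymerase on sequenced MiSeq chips. The flowed solution held 40 μM to 10 mM glucosamine-6-phosphate in HEPES/KCl/Mg(OAc)2 buffer, and imaging ran over ~14 h. kobs was taken from exponential decay fits of normalised per-tile medians, and kcat and KM from weighted Michaelis–Menten fits.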

glucosamine-6-phosphate [2] = variants of: B1; assay: KM; higher = weaker cofactor use; RNA array
Procedure, shortened: as §1

glucosamine-6-phosphate [3] = variants of: B1; assay: self-cleavage kobs at 40 uM GlcN6P; higher = faster cleavage; RNA array
Procedure, shortened: as §1

glucosamine-6-phosphate [4] = variants of: B1; assay: self-cleavage kobs at 160 uM GlcN6P; higher = faster cleavage; RNA array
Procedure, shortened: as §1

glucosamine-6-phosphate [5] = variants of: B1; assay: self-cleavage kobs at 640 uM GlcN6P; higher = faster cleavage; RNA array
Procedure, shortened: as §1

glucosamine-6-phosphate [6] = variants of: B1; assay: self-cleavage kobs at 2500 uM GlcN6P; higher = faster cleavage; RNA array
Procedure, shortened: as §1

glucosamine-6-phosphate [7] = variants of: B1; assay: self-cleavage kobs at 10000 uM GlcN6P; higher = faster cleavage; RNA array
Procedure, shortened: as §1

Row | Variant | kcat (glucosamine-6-phosphate [1]) [s⁻¹] | KM (glucosamine-6-phosphate [2]) [µM] | self-cleavage kobs at 40 uM GlcN6P (glucosamine-6-phosphate [3]) [s⁻¹] | self-cleavage kobs at 160 uM GlcN6P (glucosamine-6-phosphate [4]) [s⁻¹] | self-cleavage kobs at 640 uM GlcN6P (glucosamine-6-phosphate [5]) [s⁻¹] | self-cleavage kobs at 2500 uM GlcN6P (glucosamine-6-phosphate [6]) [s⁻¹] | self-cleavage kobs at 10000 uM GlcN6P (glucosamine-6-phosphate [7]) [s⁻¹]
1 | AUAAAAGCGCCAGAACUACAGAAAUGUAGUUGACGAGGAGGAGGUUUAUCGAAUUUUCGGCGGAGGCCUCGAAA [U65G C71G] | 0.001 ± 0.00022 | 3670 ± 1100 | 2.64e-05 ± 9.6e-06 | 4.2e-05 ± 1e-05 | 0.000145 ± 1.5e-05 | 0.000413 ± 4.9e-05 | 0.000734 ± 0.00013
2 | AUAAAAGCGCCAGAACUACAGAAAUGUAGUUGACGAGGAGGAGGUUUAUUGAAUUUUCGGCGGAUGCGUCCAAA [C50U C68G] | 4.93e-05 ± 1.9e-05 | – | – | 3.88e-05 ± 1.6e-05 | 6.55e-05 ± 1.1e-05 | 7.89e-05 ± 1.4e-05 | –
3 | AUAAAAGCGCCAGAACUACAGAAAUGUAGUUGACGAGGAGGAGAUUAAUCGAAUUUUCGGCGGAUGCCUCCAAA [G44A U47A] | 0.000358 ± 9.3e-05 | 3500 ± 1700 | < 1e-05 | – | 7.28e-05 ± 1.8e-05 | 0.000137 ± 2.1e-05 | 0.00028 ± 4.7e-05
4 | AUAAAAGCGCCAGAAAUACAGAAAUGUAGUUGACGAGGAGGAGGAUUAUCGAAUUUUCGGCGGAUGCCUCCAAA [C16A U45A] | 0.00475 ± 0.0015 | 3620 ± 1600 | 7.33e-05 ± 1.3e-05 | 0.000133 ± 3.5e-05 | 0.000781 ± 0.00013 | 0.00222 ± 0.00037 | 0.00331 ± 0.00052
5 | AUAAAAGCGCCAGAACUACAGAAAUGUAGUUGACGAGGAGGAGGUUUAUCGAAUUUGCGGCUGAUGCCUCCAAA [U57G G62U] | < 1e-05 | – | < 1e-05 | – | – | < 1e-05 | –
6 | AUAAAAGCGCCAGAACUACAGAAAUGUAGUUGACGAGGAGGAGGUUUAACGAAUUUUCGGCGGAUGCCGCCAAA [U49A U69G] | 5.15e-05 ± 2.2e-05 | – | – | – | 4.76e-05 ± 1.8e-05 | 8.54e-05 ± 1.8e-05 | –
7 | AUAAAAGCGCCAGAACUACAGAAAUGUAGUUGACGAGGCGGUGGUUUAUCGAAUUUUCGGCGGAUGCCUCCAAA [A39C A42U] | 0.000187 ± 4e-05 | – | – | – | – | 0.000135 ± 2.9e-05 | 0.000143 ± 2.2e-05
8 | AUAAAAGCGCCCGAACUACAGAAAUGUAGUUGACGAGGAGGAGGUUUAUCGGAUUUUCGGCGGAUGCCUCCAAA [A12C A52G] | 0.000882 ± 0.00021 | 2290 ± 880 | 2.37e-05 ± 1e-05 | 4.98e-05 ± 1.3e-05 | 0.000216 ± 2.4e-05 | 0.000359 ± 6.3e-05 | 0.00082 ± 0.00011
9 | AUAAAAGCGCCAGAACUACAGAAAUGUAGUUGACGAGGAGGAGGUUUGUCGAAUUUUCGGCGGAUGCCUCCAAA [A48G] | 0.000117 ± 1.3e-05 | 845 ± 350 | – | 1.61e-05 ± 3.1e-06 | 4.49e-05 ± 1.5e-06 | 0.00011 ± 2.2e-06 | 0.000103 ± 1.5e-06
10 | AUAAAAGCGCCAGAACUACAGAAAUGUAGUUGACGAGGAGGGGGUUUAUCGAAUUUUCGGCGGAUUCCUCCAAA [A42G G66U] | 0.00257 ± 0.00027 | 1900 ± 310 | 5.91e-05 ± 9e-06 | 0.000171 ± 2.6e-05 | 0.000688 ± 8.4e-05 | 0.00166 ± 0.00027 | 0.0021 ± 0.00021
11 | AUAAAAGCGCCAGAACUACAGAAAUGUAGUUGACGAGGAGGAGGUUAAUCGAAUUUUCGGUGGAUGCCUCCAAA [U47A C61U] | 2.03e-05 ± 6.6e-06 | – | < 1e-05 | – | – | – | –
12 | AUAAAAGCGCCAGAACUACAGAAAUGUAGUUGACGAGGAGGAGGUUUAUCGAAUUUUCGGCAGAUGCCUGCAAA [G62A C70G] | 4.83e-05 ± 2.2e-05 | – | < 1e-05 | – | 4.71e-05 ± 1.5e-05 | – | < 1e-05
13 | AUAAAAGCGCCAGAACUACAGAAAUGUAGUUGACGAGGAGGAGGUUUAUCGACUUUUCGGCGGAUGCCACCAAA [A53C U69A] | 0.000135 ± 1.3e-05 | 683 ± 200 | – | – | 6.52e-05 ± 1.2e-05 | 0.000124 ± 2.1e-05 | 0.000118 ± 1.8e-05
14 | AUAAAAGCGCCACAACUACAGAAAUGUAGUUGACGAGGGGGAGGUUUAUCGAAUUUUCGGCGGAUGCCUCCAAA [G13C A39G] | 0.000183 ± 2.5e-05 | 4230 ± 1300 | – | – | – | 7.1e-05 ± 1.4e-05 | 0.000128 ± 2e-05
15 | AUAAAAGCGCCAGAACUACAGAAAUGUAAUUGACGAGGAGGAGGUUUAUCGAAUUUUCGGCGGAUGCUUCCAAA [G29A C68U] | 0.000627 ± 0.0001 | 1720 ± 550 | 2.8e-05 ± 8.3e-06 | 6.11e-05 ± 8.5e-06 | 0.000122 ± 2.6e-05 | 0.000374 ± 4.7e-05 | 0.000549 ± 5.1e-05
16 | AUAAAAGCGCCAGAACUACAGAAAUGUAGUUGACGAGUAGGAGGUUUAUCGAAUUUUCCGCGGAUGCCGCCAAA [G38U G59C U69G] | 4.16e-05 ± 1.3e-05 | – | – | – | – | – | –
